Data reported in patent publication US20200299380A1 (published 2020).

Molecular target: T1, recombinant human MICA extracellular domain recombinant-Fc protein (MICA*019 allele, R&D Systems) (human, UniProt Q29983 24-297)
T1 construct: also called MICA*019-Fc; MICA-Fc; not shown: Fc of the bought fusion protein
T1 chain: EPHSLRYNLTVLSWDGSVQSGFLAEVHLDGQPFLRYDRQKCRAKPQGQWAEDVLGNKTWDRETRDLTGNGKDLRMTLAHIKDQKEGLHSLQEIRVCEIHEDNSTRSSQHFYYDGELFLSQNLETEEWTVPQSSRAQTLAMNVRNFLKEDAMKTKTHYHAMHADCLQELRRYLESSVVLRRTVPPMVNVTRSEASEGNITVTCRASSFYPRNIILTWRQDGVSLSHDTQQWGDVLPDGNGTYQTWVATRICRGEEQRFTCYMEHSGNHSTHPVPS
Experiment: SPR solution competition experiment (MICA*019-Fc pre-incubated with antibody, NKG2D-Fc chip)
Method: SPR measurements were performed on a Biacore T100 apparatus (Biacore GE Healthcare) at 25° C. In all Biacore experiments HBS-EP+ buffer (Biacore GE Healthcare) served as running buffer, 10 mM NaOH, 500 mM NaCl served as regeneration buffer and sensorgrams were analyzed with Biaevaluation 4.1 and Biacore T100 Evaluation software.
For solution competition experiments, the human NKG2D-Fc (R&D systems) recombinant proteins were covalently immobilized onto a CM5 sensorchip. Soluble human MICA*01-BirA or human MICA*019-Fc (R&D systems) recombinant proteins at a constant concentration of 10 μg/ml were pre-incubated with a 5 to 10 molar equivalent excess of antibodies and injected for 2 minutes at a flow rate of 10 μl/min onto the NKG2D-Fc chip. After each cycle, Sensorchips were regenerated by a five second injection of appropriate regeneration buffer.

binding result: no binding
B1: CHG1-M-MIA-16A8 (antibody, V domains shown)
VH: EVQLVESGGGLVKPGGSLKLSCAASGFTFSRYAMSWVRQTPEKRLEWVATIFSGGSYTYYPDSVKGRFTISRDNANNTLYLQMSSLKAEDTAMYFCARPNWERTFDYWGQGTTLTVSS
VL: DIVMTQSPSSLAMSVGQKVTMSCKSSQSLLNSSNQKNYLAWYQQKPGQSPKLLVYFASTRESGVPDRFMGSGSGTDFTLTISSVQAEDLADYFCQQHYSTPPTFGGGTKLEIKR
notes: also called CHG1-M-MIA2-16A8; chimeric anti-MICA 16A8
